The source of these data is a protein production outcome set (Wang et al. 2014).

The nature of this data set: label from the status in PepcDB records.

“MGYLKNHWWKRWIRRRGCKLAGGPASVGKRTTLVLEERVELGHLRIVPPRLEIGAYSYVRSGTDLSLVASIGRFCSIGSDCFIGQEKHTHPSDWVSSHPFQHTGTALRYEPALSYAEIGHDVWIGHSAMVMEGVKVGTGAIIATRAVVTRDVPPYAIVAGTPAQVIRYRHPPEIIEGLLASRWWELDSAFLTGLPLDRPREFLAALEAREAPRAAYRRMTITRQGCRLDLEHHHHHH”: the protein production entry was “failed”. In the case of “MHAINFIQDLAVIMLVAGVVTILFHRLRQPVVLGYIVAGFIIGPHTPPVSLIHDEDTIKILAELGVIFLMFCLGLEFSLRKLFKVGATAFIAAFLEIALMIWIGYEIGQFFGWKTMDSLFLGAILAISSTTIIVKALNDLKMKNQHFAQLIFGVLIVEDILGIGIIALLSGIAVSGSVSSGEVFSTVGKLSLFMIVALVVGILLVPRLLSYVARFDSNEMLLITVLGLCFGFCLLVVKLEYSMVLGAFLIGAIMAESRELLKIERLIEPIRDMFSAIFFVAIGLMIDPKILLEYAWPIAVITVAVVLGKMISCGLGAFIAGNDGRTSLRVGMGLSQIGEFSFIIAALGMTLQVTSDFLYPVAVAVSAITTLLTPYLIRGADPLSLKLAAIMPRRVARVFGMYGEWLRSIQPQGQSAVLAGMIRRILLQVGVNLALVMAIFFSGGYFAERLGGYMDEWVADVSHQKAWICGAALLLSLPFLIAAYRKLKALSMLLAEMGVKPEMAGRHTVRVRKVVAEVIPLLSLVVIFVMLAALSASILPANELLLVVVLVAALVAALLWRWLIRVHTRMQIALLETLGNNQESSGH”, the protein production result is on record as “failed”. The result for “MHALPGIRTLFLGMPSSTRSPETAVPRILTSRTDVTERSEHNALMFGSPKERWDFYRREIQYDTSILANRTDAYLAAQSFLVIAFASSMSNLNPEWGGLFTLLVPPFLALLCILTTLNAWPGIRAAYDIIDQWYFKQVQLLLAYDESPLFCESESTHKSYRKSLPFSLRAP” reads “failed”. On to “MHAPDALPGCAPVSPAPGYHGAPAVAGHAPTLGVTASMSSITLFQAPPPEAIQSQIQQMVVDYITDVSAVAIAPSNPLYNLYQYGVGYEVHLYLQAMDGSRGIAVELVVATDPQAPDQVLGFTLYLPVKDDPQACAVAYMAVLQGHRRQGIARQMLQAMLARYPHAELACNVAKVGCFEALGFQLLGARGPQVLMNTRDHGSDGLLAVLDVVTIYQSVEVRQIHTYLLAQHGRKAMLEAEKKRDRQLDQMTRQAQALVRERLGEAALYRSRAPQLIN”, for which the protein production result is “failed”.

“MHCVFLEFNMSVFKKIYFALSAFIVAPHIFLLMSSRHDNPIFRDIEVWSEKLLGKKISGRSGLVASVVELLSLAPEFRNLFYYRVPRARFFKFLSRPENTLHIHTRTIGPGFFIQHGFATIISAESIGADCWINQQVTIGYVDSTGAPKIGDNVTINAGAKVLGNIVIGDNAKVGANAVVVKNIPADCVVVGVPARIIRRAGARVDEAL”: the protein production entry is given as “failed”. The result for “MHDATDSLPLCMTRPTRFRWVWWLLAYASLATGIVGIFVPGLPTTVLILNLRLGRLTWLRSRLHYWLLSHPRFGPAIVEWQTYRAVSRKAKWMATLTMSICAAIMLWCVPVFWVKCLSIGSMAVVAIWLWLRPEPPPRPLPAAH” reads “failed”.
